T1: GST fusion protein containing MG3 (Gln26 to Ala189) of human Mp1 (human, UniProt P40238 26-189)
T1 construct: range 26-189; not shown: glutathione S-transferase (GST) encoded by vector pGEX-4T-3 (Amersham Biosciences)
T1 sequence (looked up): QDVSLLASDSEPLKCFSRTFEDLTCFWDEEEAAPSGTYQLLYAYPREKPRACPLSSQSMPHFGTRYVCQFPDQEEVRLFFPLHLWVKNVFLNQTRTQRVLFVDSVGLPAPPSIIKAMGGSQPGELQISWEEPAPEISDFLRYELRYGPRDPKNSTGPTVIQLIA

T2: GST fusion protein containing MG8 (Gln26 to Pro217) of human Mp1 (human, UniProt P40238 26-217)
T2 construct: range 26-217; not shown: glutathione S-transferase (GST) encoded by vector pGEX-4T-3 (Amersham Biosciences)
T2 sequence (looked up): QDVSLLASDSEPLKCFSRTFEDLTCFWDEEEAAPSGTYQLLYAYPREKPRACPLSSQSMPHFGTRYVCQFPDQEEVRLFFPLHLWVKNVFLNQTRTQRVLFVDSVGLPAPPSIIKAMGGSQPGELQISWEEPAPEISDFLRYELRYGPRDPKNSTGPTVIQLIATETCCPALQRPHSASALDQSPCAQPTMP

T3: GST fusion protein containing MG4 (Gln26 to Pro106) of human Mp1 (human, UniProt P40238 26-106)
T3 construct: range 26-106; not shown: glutathione S-transferase (GST) encoded by vector pGEX-4T-3 (Amersham Biosciences)
T3 sequence (looked up): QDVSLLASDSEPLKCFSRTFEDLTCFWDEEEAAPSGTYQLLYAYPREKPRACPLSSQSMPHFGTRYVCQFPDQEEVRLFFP

T4: mouse Mp1 expressed on CHO cells (CHO-mouse Mp1) (mouse, UniProt Q08351 26-625)
T4 construct: whole, on cells; also called mouse Mp1-expressing CHO cell line
T4 sequence (looked up): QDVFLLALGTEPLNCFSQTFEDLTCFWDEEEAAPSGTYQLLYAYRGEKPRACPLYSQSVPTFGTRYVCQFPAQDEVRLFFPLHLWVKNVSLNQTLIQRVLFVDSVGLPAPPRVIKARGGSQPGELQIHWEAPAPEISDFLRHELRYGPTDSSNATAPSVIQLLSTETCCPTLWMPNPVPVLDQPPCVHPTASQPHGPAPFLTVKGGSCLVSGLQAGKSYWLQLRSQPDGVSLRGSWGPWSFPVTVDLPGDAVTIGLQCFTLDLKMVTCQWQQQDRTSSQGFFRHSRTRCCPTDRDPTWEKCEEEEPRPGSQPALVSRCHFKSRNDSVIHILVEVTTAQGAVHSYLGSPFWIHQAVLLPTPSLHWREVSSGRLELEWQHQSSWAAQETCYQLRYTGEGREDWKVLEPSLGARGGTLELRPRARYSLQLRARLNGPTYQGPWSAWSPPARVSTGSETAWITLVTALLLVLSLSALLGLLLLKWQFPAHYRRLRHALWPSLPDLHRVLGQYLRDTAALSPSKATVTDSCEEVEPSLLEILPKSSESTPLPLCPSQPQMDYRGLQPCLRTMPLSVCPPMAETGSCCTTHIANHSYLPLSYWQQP

T5: cynomolgus monkey Mp1 expressed on CHO cells (CHO-monkey Mp1) (cynomolgus monkey, UniProt P40238 26-635 (human entry))
T5 construct: also called monkey Mp1-expressing CHO cell line
T5 chain: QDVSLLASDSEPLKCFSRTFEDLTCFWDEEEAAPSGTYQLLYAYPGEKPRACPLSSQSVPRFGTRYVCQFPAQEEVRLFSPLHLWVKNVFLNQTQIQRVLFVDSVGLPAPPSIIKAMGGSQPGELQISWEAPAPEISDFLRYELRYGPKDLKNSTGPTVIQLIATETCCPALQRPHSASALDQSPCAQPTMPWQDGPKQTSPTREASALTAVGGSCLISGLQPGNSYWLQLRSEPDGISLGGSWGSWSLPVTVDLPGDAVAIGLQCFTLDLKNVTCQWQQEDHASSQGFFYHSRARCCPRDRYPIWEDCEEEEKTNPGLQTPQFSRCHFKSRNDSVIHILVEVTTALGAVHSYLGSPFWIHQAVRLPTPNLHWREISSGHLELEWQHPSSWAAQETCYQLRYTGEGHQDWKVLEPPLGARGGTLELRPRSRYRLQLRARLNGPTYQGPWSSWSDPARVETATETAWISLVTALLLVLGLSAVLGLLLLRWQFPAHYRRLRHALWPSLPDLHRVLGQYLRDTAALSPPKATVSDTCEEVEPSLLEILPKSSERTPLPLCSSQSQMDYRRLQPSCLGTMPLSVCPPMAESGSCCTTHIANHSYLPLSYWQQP

T6: human Mp1-IgG Fc fusion protein (human, UniProt P40238 26-491)
T6 construct: range 26-491; Expressed in CHO-DG44 with a 19-amino acid signal peptide from a human IgG H chain variable region, left out here; also called hMp1-Fc; hMPL-Fc; not shown: Fc region of human IgG-gamma1 (a region downstream of Asp 216)
T6 sequence: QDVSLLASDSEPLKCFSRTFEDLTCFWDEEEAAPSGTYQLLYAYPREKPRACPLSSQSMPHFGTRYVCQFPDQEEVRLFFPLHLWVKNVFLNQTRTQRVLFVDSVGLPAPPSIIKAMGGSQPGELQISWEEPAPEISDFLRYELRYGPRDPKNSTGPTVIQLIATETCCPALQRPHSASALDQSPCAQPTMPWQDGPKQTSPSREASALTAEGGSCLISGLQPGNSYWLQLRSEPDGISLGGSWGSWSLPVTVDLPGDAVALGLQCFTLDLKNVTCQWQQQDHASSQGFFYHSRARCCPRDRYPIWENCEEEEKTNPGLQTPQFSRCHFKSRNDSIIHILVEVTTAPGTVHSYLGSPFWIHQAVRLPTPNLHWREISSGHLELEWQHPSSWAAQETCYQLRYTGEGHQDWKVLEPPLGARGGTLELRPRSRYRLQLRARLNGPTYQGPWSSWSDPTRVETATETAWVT

T7: human Mp1 expressed on CHO cells (CHO-human Mp1) (human, UniProt P40238 26-635)
T7 construct: whole, on cells; also called human Mp1-expressing CHO cell line
T7 sequence (looked up): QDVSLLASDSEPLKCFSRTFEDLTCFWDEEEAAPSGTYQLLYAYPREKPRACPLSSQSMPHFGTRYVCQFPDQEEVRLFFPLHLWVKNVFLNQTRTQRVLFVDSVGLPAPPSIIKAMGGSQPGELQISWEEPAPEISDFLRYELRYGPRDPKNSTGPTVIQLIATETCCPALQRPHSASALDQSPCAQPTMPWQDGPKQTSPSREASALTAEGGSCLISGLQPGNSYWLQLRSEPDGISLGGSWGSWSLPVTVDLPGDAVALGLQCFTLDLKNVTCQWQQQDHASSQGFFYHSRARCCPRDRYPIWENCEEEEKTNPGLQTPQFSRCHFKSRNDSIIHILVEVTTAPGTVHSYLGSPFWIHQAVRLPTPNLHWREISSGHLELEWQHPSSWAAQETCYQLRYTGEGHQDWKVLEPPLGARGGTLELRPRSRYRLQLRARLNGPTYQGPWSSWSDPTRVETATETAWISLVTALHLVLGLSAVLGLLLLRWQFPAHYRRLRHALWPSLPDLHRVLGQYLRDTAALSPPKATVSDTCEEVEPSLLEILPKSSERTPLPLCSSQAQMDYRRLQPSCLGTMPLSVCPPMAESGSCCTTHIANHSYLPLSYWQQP


Tests used:
[1] = molecular target: T1, GST fusion protein containing MG3 …; assay: Western blotting of GST fusion proteins
Procedure: (§1) Since the anti-human Mp1 antibody VB22B can be used for Western blotting, a GST-fusion protein containing a partial sequence of human Mp1 was constructed for VB22B epitope analysis. MG1 (Gln26 to Trp491) and MG2 (Gln26 to Leu274) regions were each amplified by PCR, and cloned into pGEX-4T-3 (Amersham Biosciences) to be expressed as GST fusion proteins. The resulting plasmid DNAs were transformed into DH5α to give transformants. A final concentration of 1 mM IPTG was added to the transformants in their logarithmic growth phase to induce the expression of GST fusion proteins. The bacterial cells were harvested after two hours of incubation. The cells were lysed by sonication. The lysates were centrifuged in XL-80 Ultracentrifuge (Beckman, Rotor 70.1Ti) at 35,000 rpm for 30 min. The culture supernatants were removed, and then the fusion proteins were purified using GST Purification Modules (Amersham Biosciences). The samples were separated by 10%-SDS-PAGE, and then transferred onto a PVDF membrane. The membrane was analyzed by the murine antibody VB22B in Western blotting.
(§2) Then, GST fusion proteins containing the respective regions of human Mp1: MG3 (Gln26 to Ala189), MG4 (Gln26 to Pro106), MG5 (Gln26 to Glu259), and MG6 (Gln26 to Gly245) were prepared and analyzed by Western blotting using the same procedure described above. […] In addition, GST was fused with MG7 (Gln26 to Ala231) and MG8 (Gln26 to Pro217) to prepare GST fusion proteins.

[2] = molecular target: T2, GST fusion protein containing MG8 …; assay: Western blotting of GST fusion proteins
Procedure: as §1, §2

[3] = molecular target: T3, GST fusion protein containing MG4 …; assay: Western blotting of GST fusion proteins
Procedure: as §1, §2

[4] = molecular target: T4, mouse Mp1 expressed on CHO cells …; assay: flow cytometry on CHO cells expressing Mp1
[5] = molecular target: T5, cynomolgus monkey Mp1 expressed on CHO …; assay: flow cytometry on CHO cells expressing Mp1
[6] = molecular target: T6, human Mp1-IgG Fc fusion protein; assay: SPR (Biacore 2000), hMp1-Fc amine-coupled to CM5 chip, VB22B IgG injected at 1.25 to 20 ug/mL
Procedure: Since the anti-human Mp1 antibody VB22B binds to soluble recombinant Mp1, kinetic analyses of the antigen-antibody reaction between VB22B IgG and human Mp1-IgG Fc fusion protein were carried out as described in Example 1.4. The Sensor Chip CM5 (Biacore) was placed in Biacore 2000 (Biacore), and human Mp1-IgG Fc fusion protein was immobilized onto the chip by amine-coupling methods. Then, 1.25 to 20 μg/mL of VB22B IgG solution was prepared using HBS-EP Buffer (Biacore), and injected over the chip surface for 2 min to reveal the binding region. Then, HBS-EP Buffer was injected over the chip surface for 2 min to reveal the dissociation region. VB22B IgG bound to the human Mp1-IgG Fc fusion protein on the sensor chip was removed by injecting 10 mM NaOH over the sensor chip for 15 sec, and the chip was recovered. HBS-EP Buffer was used as the running buffer, and the flow rate was 20 μL/min. Using the BIAevaluation Version 3.1 (Biacore) software, the reaction rate constant at each concentration was calculated from the sensorgrams.

[7] = molecular target: T7, human Mp1 expressed on CHO cells …; assay: flow cytometry on CHO cells expressing Mp1, detection with anti-FLAG M2 and FITC anti-mouse IgG
Procedure: (§3) CHO-human Mp1, CHO-monkey Mp1, and CHO-mouse Mp1 cells were recovered and suspended in FACS buffer (1% FBS/PBS) to a final concentration of 1×10⁶ cells/mL. Cell suspensions were aliquoted at 100-μL/well into the Multiscreen-HV Filter Plates (Millipore). After centrifugation, the supernatant was removed. An appropriate concentration of diabody or sc(Fv)2 was added into each well and incubated on ice for 30 min. The cells were washed once with 200 μL of FACS buffer, and incubated on ice for 30 min following the addition of 10 μg/mL ANTI-FLAG® M2 Monoclonal Antibody (Sigma-Aldrich). The cells were then washed once with 200 μL of FACS buffer, and a 100×-diluted FITC-labeled anti-mouse IgG antibody (Beckman Coulter) was added to the plate. The plate was incubated on ice for 30 min. After centrifugation, the supernatant was removed. The cells were suspended in 400 μL of FACS Buffer, and then analyzed by flow cytometry using EPICS ELITE ESP (Beckman Coulter). An analysis gate was set on the forward and side scatters of a histogram to include viable cell populations.
(§4) The binding activity of the purified VB22B sc(Fv)2 to various Mp1 molecules expressed in CHO cells was determined.

[8] = molecular target: T5, cynomolgus monkey Mp1 expressed on CHO …; assay: as above
Procedure: as §3, §4

Row | binding result [1] | binding result [2] | binding result [3] | binding result [4] | binding result [5] | Kd [6] [nM] | binding result [7] | binding result [8] | Binder
1 | no binding | no binding | no binding | no binding | binds | 1.67 |  |  | anti-human Mp1 antibody VB22B (VB22B IgG) (antibody, V domains shown, Mouse monoclonal IgG purified from hybridoma supernatant; They were cloned with primers complementary to the mouse IgG2b and kappa constant regions; also called murine antibody VB22B) VH: QVQLQQSGPELVKPGASVKISCKASGYAFTNSWMNWVKQRPGKGLEWIGRIYPGDGETIYNGKFRVKATLTADKSSSTAYMDISSLTSEDSAVYFCARGYDDYSFAYWGQGTLVTVSA VL: DIVMTQAAPSIPVTPGESVSISCRSSKSLLHSNGNTYLYWFLQRPGQSPQLLIYRMSNLASGVPDRFSGSGSGTAFTLRISRVEAEDVGVYYCMQHIEYPFTFGSGTKLEIK
2 |  |  |  | no binding |  |  | binds | binds | Murine VB22B sc(Fv)2 (scFv, Single chain sc(Fv)2, VH-(Gly4Ser)3-VL-(Gly4Ser)3-VH-(Gly4Ser)3-VL, with a FLAG tag (detected with anti-FLAG M2); also called mVB22B) scFv: QVQLQQSGPELVKPGASVKISCKASGYAFTNSWMNWVKQRPGKGLEWIGRIYPGDGETIYNGKFRVKATLTADKSSSTAYMDISSLTSEDSAVYFCARGYDDYSFAYWGQGTLVTVSAGGGGSGGGGSGGGGSDIVMTQAAPSIPVTPGESVSISCRSSKSLLHSNGNTYLYWFLQRPGQSPQLLIYRMSNLASGVPDRFSGSGSGTAFTLRISRVEAEDVGVYYCMQHIEYPFTFGSGTKLEIKGGGGSGGGGSGGGGSQVQLQQSGPELVKPGASVKISCKASGYAFTNSWMNWVKQRPGKGLEWIGRIYPGDGETIYNGKFRVKATLTADKSSSTAYMDISSLTSEDSAVYFCARGYDDYSFAYWGQGTLVTVSAGGGGSGGGGSGGGGSDIVMTQAAPSIPVTPGESVSISCRSSKSLLHSNGNTYLYWFLQRPGQSPQLLIYRMSNLASGVPDRFSGSGSGTAFTLRISRVEAEDVGVYYCMQHIEYPFTFGSGTKLEIK

Source: patent US20090117097A1 (Chugai, published 2009)
